Laboratory results from the RNAGym collection of RNA variant scans (doi:10.7554/elife.80360).

B1: HDV Ribozyme (parent)
chain: GGCCGGCAUGGUCCCAGCCUCCUCGCUGGCGCCGGCUGGGCAACAUUCCGAGGGGACCGUCCCCUCGGUAAUGGCGAAUGGGACCCA

Variants of: B1
Experiment: self-cleavage, relative activity (ratio to wild type); higher = more cleavage; co-transcriptional

| Variant | self-cleavage |
| --- | --- |
| C48U G52C | 0.847 |
| U47C C49A | 0.95 |
| C48U G50A | 0.888 |
| G50A A71G | 0.991 |
| G50A A71U | 0.881 |
| C48U G55U | 1.11 |
| G50A G67A | 1.17 |
| G50A G67U | 1.06 |
| G50A G67C | 0.869 |
| U47G A77C | 0.35 |
| G50C G74U | 0.292 |
| G50C G74A | 0.471 |
| C49A A71C | 0.643 |
| C49G C57G | 0.997 |
| U47C G76U | 0.895 |
| U47C G76C | 0.931 |
| G50A U72G | 0.582 |
| U47A A83G | 0.734 |
| C49U A83U | 0.391 |
| U47G G73A | 0.852 |
| U47G G73U | 0.458 |
| U47G G73C | 0.534 |
| U47A U60A | 0.851 |
| C49U G50U | 0.941 |

| Variant | self-cleavage |
| --- | --- |
| C49A G68U | 0.817 |
| C49A G68C | 0.849 |
| C49G C62G | 0.133 |
| G50A A78U | 0.4 |
| U47A U72C | 0.688 |
| G50A C62A | 0.694 |
| G50A C62G | 0.219 |
| C48U G81U | 0.327 |
| U47C U72A | 0.65 |
| G50C C66U | 0.954 |
| G50C C66A | 0.812 |
| C48G G50U | 0.941 |
| G50A G82C | 0.409 |
| U47A C57G | 0.898 |
| G50C A78U | 0.131 |
| C48A C84A | 1.08 |
| C48A C84U | 0.819 |
| C48A G68C | 0.707 |
| C48A G68A | 1.06 |
| C49U C84G | 0.364 |
| C49G C58A | 0.764 |
| U47G G55U | 1.07 |
| U47A C62U | 1.03 |
| C48A G55A | 0.972 |

| Variant | self-cleavage |
| --- | --- |
| C48A U60A | 0.918 |
| C48A U60C | 0.91 |
| C48A U60G | 0.886 |
| C48A C63G | 0.73 |
| C48A C63U | 1.07 |
| U47C C86U | 0.712 |
| G50A A87C | 1.07 |
| C49A G73A | 0.314 |
| C49G A51C | 0.623 |
| C49G A51G | 0.688 |
| C48A G80A | 0.293 |
| G50C A56C | 0.978 |
| U47G A70U | 1.4 |
| U47G A70C | 1.22 |
| U47C A83U | 0.378 |
| U47C A83C | 0.554 |
| G50C A77G | 0.665 |
| G50C A77U | 0.554 |
| U47A G76U | 0.742 |
| U47A G76A | 0.901 |
| C48U C49A | 1.05 |
| C48U C49U | 0.85 |
| C48U C49G | 0.982 |
| U47C G53U | 0.966 |

| Variant | self-cleavage |
| --- | --- |
| C48G C57U | 1.04 |
| C48G C57A | 0.798 |
| C49U U79A | 0.811 |
| G50A G73A | 0.623 |
| G50A G73C | 0.436 |
| G50A G73U | 0.369 |
| U47C G55U | 0.831 |
| C49G G55A | 0.976 |
| C49G G67C | 1.22 |
| G50A G55C | 0.81 |
| U47G G54C | 0.928 |
| U47A G53U | 0.755 |
| U47A G53C | 1.19 |
| C48U G76A | 1.08 |
| C48U G76U | 1.15 |
| C49U C61U | 0.851 |
| C48G A78U | 0.142 |
| U47C G54U | 1.14 |
| C48A G74U | 0.38 |
| U47G C86G | 0.95 |
| U47A G59U | 0.933 |
| C49G G50A | 0.793 |
| C49G G50C | 0.587 |
| U47G G52A | 0.978 |

| Variant | self-cleavage |
| --- | --- |
| U47G G52C | 0.895 |
| U47G C63G | 0.415 |
| U47G U65A | 0.942 |
| C48U G74C | 0.253 |
| C48U A78G | 0.522 |
| C48G | 0.988 |
| C48U | 1.01 |
| C48A | 0.989 |
| C49A C86G | 0.906 |
| U47G A51G | 0.906 |
| U47G A51C | 1.13 |
| U47G A51U | 1.2 |
| G50A G74C | 0.242 |
| G50A G74A | 0.411 |
| C49A U69G | 1.33 |
| G50C A51C | 0.814 |
| U47C C63A | 0.739 |
| U47A C66U | 1.17 |
| U47A C48U | 0.923 |
| C49U C58U | 0.991 |
| C49A A70G | 0.689 |
| U47G U60A | 1.33 |
| C48U G54U | 1.02 |
| C48U G54C | 1.2 |

| Variant | self-cleavage |
| --- | --- |
| U47C G68C | 0.44 |
| U47C G50U | 0.733 |
| U47C G50C | 0.831 |
| U47C C66G | 1.17 |
| U47A C63U | 1 |
| U47A C49A | 0.886 |
| U47G C66A | 0.969 |
| C49G G82U | 0.123 |
| C49G G82C | 0.16 |
| C49A A83U | 0.719 |
| C49U C62U | 1.17 |
| C48U C64U | 0.997 |
| G50C G59A | 0.992 |
| U47A G74C | 0.104 |
| U47A A78U | 0.295 |
| U47A A78G | 0.831 |
| C48U A77U | 0.356 |
| C48U A56G | 0.989 |
| C49A G67C | 1.04 |
| C49G G74C | 0.192 |
| C49G G74U | 0.219 |
| C48G G82U | 0.284 |
| C48G G82C | 0.111 |
| C48G C66U | 0.868 |

| Variant | self-cleavage |
| --- | --- |
| C48G C66A | 0.898 |
| G50C G81U | 0.263 |
| U47C G67A | 0.923 |
| C49A G74A | 0.288 |
| U47G A71G | 1.11 |
| U47C A56G | 0.665 |
| C49A C63A | 0.597 |
| C48U C84A | 0.958 |
| C48U C84U | 0.742 |
| C48A A56U | 1.03 |
| C48G C49A | 0.808 |
| C48G G80U | 0.244 |
| U47C C61U | 0.872 |
| C49A C64G | 0.356 |
| U47G G76U | 1.22 |
| C48A A70U | 0.985 |
| C49G G81A | 0.361 |
| C49G G81U | 0.205 |
| C48G G52C | 0.762 |
| C48G G52A | 0.86 |
| C49A C84A | 1.05 |
| G50C G54U | 0.374 |
| C49U G73C | 0.409 |
